Assay results as given in US20160237160A1 (Bayer, published 2016).

What was measured:
Test in all cases: ELISA, Fc fusion protein coated at 1 µg/ml, TPP-2090 at 75 nM, Amplex Red;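 note: binding reported as ELISA signal intensity in Rfu against a panel of TNF receptor superfamily members presented as Fc fusion proteins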
[1] = target: T1, RELT (TNFRSF19L) Fc fusion protein (Human, UniProt Q969Z4 26-162)
T1 construct: extracellular domain; bought
T1 sequence (looked up): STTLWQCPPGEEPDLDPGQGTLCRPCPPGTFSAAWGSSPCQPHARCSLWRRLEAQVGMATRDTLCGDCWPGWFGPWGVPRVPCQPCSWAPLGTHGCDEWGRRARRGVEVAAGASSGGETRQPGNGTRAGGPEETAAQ
From the text: (§1) Shown is the result of an ELISA: Y is “ELISA signal intensity [Rfu]”; X are “TNF receptor superfamily proteins tested (Fc-fusion proteins)”: 1 is “TWEAKR”; 2 is “TWEAKR”; 3 is “Apo-3”; 4 is “Trail-R1”; 5 is “Trail-R2”; 6 is “CD385”; 7 is “CD95”; 8 is “Rank”; 9 is “TNF-R1”; 10 is “TNF-R2”; 11 is “BAFF-R”; 12 is “DcR3”; 13 is “BCMA”; 14 is “TACI”; 15 is “OX40”; 16 is “CD30”; 17 is “CD27”; 18 is “CD40”; 19 is “Osteoprotegerin”; 20 is “EDAR”; 21 is “GITR”; 22 is “HVEM”; 23 is “NGF R”; 24 is “Trail R3”; 25 is “Lymphotioxin B R”; 26 is “Trail R4”; 27 is “EDA2R”; 28 is “TROY”; 29 is “RELT”; 30 is “4-1BB”.
(§2) To collect dose-response data a serial 3fold dilution of biotinylated IgG starting with a concentration of 2 μM was used as soluble binding partner. Detection was done with anti-hIgG1-HRP and Amplex Red.

[2] = target: T2, CD27 (TNFRSF7) Fc fusion protein (Human, UniProt P26842 20-191)
T2 construct: extracellular domain; bought
T2 sequence (P26842 20-191): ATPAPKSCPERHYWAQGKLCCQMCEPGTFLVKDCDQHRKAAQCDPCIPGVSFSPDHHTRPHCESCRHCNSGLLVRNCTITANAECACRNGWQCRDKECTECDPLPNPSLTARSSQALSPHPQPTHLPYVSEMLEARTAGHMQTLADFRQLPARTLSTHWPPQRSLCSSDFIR
From the text: as §1, §2

[3] = target: T3, TNF-R2 (TNFRSF1B) Fc fusion protein (Human, UniProt P20333 23-257)
T3 construct: extracellular domain; bought
T3 sequence (looked up): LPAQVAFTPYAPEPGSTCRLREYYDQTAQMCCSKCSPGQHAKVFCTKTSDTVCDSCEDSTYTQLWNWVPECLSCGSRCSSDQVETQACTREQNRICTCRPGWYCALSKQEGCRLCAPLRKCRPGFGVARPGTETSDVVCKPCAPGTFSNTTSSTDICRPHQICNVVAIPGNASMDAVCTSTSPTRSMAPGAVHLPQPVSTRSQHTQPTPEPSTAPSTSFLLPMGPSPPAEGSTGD
From the text: as §1, §2

[4] = target: T4, EDA2R (TNFRSF27) Fc fusion protein (Human, UniProt Q9HAV5 1-138)
T4 construct: extracellular domain; bought
T4 sequence (looked up): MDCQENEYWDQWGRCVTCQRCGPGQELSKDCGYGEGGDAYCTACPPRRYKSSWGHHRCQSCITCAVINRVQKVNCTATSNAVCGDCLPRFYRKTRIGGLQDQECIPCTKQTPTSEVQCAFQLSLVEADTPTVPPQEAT
From the text: as §1, §2

[5] = target: T5, CD-385 (TNFRSF21) Fc fusion protein (Human, UniProt O75509 42-349)
T5 construct: extracellular domain; bought
T5 sequence (looked up): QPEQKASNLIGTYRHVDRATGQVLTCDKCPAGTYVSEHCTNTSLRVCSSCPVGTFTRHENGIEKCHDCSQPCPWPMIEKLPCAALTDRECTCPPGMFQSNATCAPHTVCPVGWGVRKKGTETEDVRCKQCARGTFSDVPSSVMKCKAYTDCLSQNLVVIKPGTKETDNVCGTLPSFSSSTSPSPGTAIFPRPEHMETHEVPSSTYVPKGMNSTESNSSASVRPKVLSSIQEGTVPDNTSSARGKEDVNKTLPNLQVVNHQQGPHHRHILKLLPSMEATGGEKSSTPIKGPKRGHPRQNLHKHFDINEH
From the text: as §1, §2

[6] = target: T6, HVEM (TNFRSF14) Fc fusion protein (Human, UniProt Q92956 39-202)
T6 construct: extracellular domain; bought
T6 sequence (looked up): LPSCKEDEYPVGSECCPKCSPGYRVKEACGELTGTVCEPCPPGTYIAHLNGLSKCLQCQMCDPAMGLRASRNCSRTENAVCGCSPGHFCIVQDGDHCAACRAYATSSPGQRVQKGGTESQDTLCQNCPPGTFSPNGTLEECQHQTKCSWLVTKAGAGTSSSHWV
From the text: as §1, §2

[7] = target: T7, TNF-R1 (TNFRSF1A) Fc fusion protein (Human, UniProt P19438 30-211)
T7 construct: extracellular domain; bought
T7 sequence (looked up): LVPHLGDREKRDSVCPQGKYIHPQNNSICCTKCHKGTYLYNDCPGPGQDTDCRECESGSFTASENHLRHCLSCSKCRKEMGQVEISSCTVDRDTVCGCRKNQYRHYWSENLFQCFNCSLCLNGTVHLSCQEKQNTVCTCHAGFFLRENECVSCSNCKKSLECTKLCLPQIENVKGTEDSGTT
From the text: as §1, §2

[8] = target: T8, Trail-R2 (TNFRSF10B) Fc fusion protein (Human, UniProt O14763 56-210)
T8 construct: extracellular domain; bought
From the text: as §1, §2

[9] = target: T9, Osteoprotegerin (TNFRSF11B) Fc fusion protein (Human, UniProt O00300 22-194, limits assumed)
T9 construct: extracellular domain; bought
T9 sequence (looked up): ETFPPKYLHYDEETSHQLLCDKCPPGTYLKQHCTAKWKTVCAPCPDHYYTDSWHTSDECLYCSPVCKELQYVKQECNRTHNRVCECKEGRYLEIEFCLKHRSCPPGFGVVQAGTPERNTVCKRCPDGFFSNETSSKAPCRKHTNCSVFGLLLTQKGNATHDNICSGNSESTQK
From the text: as §1, §2

[10] = target: T10, DcR3 (TNFRSF6B) Fc fusion protein (Human, UniProt O95407 30-300)
T10 construct: extracellular domain; bought
T10 sequence (looked up): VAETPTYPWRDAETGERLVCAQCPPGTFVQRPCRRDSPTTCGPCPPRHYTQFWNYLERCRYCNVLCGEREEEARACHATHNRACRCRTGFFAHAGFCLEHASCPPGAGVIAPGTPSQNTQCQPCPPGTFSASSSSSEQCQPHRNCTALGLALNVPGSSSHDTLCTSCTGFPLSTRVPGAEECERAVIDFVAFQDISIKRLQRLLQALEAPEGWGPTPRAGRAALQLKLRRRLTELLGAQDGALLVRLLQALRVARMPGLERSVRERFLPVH
From the text: as §1, §2

[11] = target: T11, CD40 (TNFRSF5) Fc fusion protein (Human, UniProt P25942 21-193)
T11 construct: extracellular domain; bought
T11 sequence (P25942 21-193): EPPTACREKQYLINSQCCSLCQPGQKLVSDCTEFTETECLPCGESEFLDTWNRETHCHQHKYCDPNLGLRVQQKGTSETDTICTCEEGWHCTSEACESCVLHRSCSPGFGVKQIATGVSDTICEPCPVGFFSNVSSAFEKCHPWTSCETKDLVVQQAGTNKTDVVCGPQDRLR
From the text: as §1, §2

Measured: binding result

B1: TPP-2090 (antibody, human IgG1, kappa, V domains shown)
VH: EVQLLESGGGLVQPGGSLRLSCAASGFTFSPYPMIWVRQAPGKGLEWVSYISPSGGSTHYADSVKGRFTISRDNSKNTLYLQMNSLRAEDTAVYYCARGGDTYFDYFDYWGQGTLVTVSS
VL: DIQMTQSPSSLSASVGDRVTITCRASQSISGYLNWYQQKPGKAPKLLIYQASSLQSGVPSRFSGSGSGTDFTLTISSLQPEDFATYYCQQSYTSPFITFGQGTKVEIKR
notes: Human IgG1
no binding (tested: 75 nM): all assays above
